Experimental data taken from patent US20160017037A1 (GlaxoSmithKline, published 2016).

T1: Recombinant cynomolgus macaque LAG-3 ECD-His6 (cynomolgus macaque, UniProt P18627 24-433 (human entry))
T1 construct: In-house generated; also called cyno LAG-3
T1 chain: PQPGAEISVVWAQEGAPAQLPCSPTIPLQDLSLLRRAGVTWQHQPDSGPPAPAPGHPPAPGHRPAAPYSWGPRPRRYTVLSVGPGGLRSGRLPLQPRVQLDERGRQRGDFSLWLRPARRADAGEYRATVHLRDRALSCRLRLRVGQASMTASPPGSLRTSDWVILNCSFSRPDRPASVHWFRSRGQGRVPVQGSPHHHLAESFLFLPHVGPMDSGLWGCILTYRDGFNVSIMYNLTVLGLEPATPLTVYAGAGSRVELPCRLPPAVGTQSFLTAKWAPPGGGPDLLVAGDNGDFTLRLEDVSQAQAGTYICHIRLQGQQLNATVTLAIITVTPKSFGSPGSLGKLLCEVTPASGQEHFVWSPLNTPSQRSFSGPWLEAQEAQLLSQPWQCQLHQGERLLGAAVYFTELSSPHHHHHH

T2: Recombinant baboon LAG-3 ECD-His6 (baboon, UniProt P18627 24-433 (human entry))
T2 construct: In-house generated
T2 chain: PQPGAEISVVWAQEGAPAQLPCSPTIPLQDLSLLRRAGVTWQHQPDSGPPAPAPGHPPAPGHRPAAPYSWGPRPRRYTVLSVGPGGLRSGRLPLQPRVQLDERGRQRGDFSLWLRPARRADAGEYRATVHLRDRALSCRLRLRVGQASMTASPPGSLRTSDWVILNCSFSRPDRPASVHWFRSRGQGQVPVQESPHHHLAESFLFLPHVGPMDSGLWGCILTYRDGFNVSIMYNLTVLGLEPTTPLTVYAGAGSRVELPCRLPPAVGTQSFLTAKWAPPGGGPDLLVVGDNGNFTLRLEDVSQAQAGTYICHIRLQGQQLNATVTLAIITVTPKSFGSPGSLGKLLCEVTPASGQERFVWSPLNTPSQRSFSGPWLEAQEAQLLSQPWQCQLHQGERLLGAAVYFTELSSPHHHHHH

T3: Recombinant human LAG-3 ECD-His6 (human, UniProt P18627 23-433)
T3 construct: also called LAG-3-His; recombinant human LAG-3-His
T3 sequence: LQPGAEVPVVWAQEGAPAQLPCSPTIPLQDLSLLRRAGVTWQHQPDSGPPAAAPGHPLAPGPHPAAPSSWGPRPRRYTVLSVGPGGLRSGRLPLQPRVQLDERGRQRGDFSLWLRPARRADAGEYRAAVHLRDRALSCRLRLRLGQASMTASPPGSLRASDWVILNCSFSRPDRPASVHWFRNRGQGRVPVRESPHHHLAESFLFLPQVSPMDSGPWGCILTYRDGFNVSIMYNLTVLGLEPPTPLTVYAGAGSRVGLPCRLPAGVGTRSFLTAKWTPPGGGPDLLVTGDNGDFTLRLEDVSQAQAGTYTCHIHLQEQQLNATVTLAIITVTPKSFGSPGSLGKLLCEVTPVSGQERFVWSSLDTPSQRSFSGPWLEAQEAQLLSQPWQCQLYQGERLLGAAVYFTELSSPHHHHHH


What was measured:
[1] = target: T1, Recombinant cynomolgus macaque LAG-3 …; assay: SPR Biacore T100 (orthologues at 37 C, human at 25 C)
Description: (§1) Wild type fucosylated and afucosylated antibodies were compared for their ability to bind to recombinant human LAG-3 ECD with a C-terminal His6 (SEQ ID NO:51) using the Biacore™ T100 (GE Healthcare™). Protein A was immobilised on a CM5 chip by primary amine coupling. This surface was then used to capture the humanised antibodies. Recombinant human LAG-3 ECD-His6 was then passed over the captured antibodies at 32, 8, 2, 0.5 and 0.125 nM and regeneration was carried out using 50 mM NaOH. The binding curves were double referenced with buffer injection (i.e. 0 nM) and the data was fitted to the T100 analysis software using the 1:1 model. The run was carried out at 25° C., using HBS-EP as the running buffer.
(§2) Protein A was immobilised on a CM5 chip by primary amine coupling. This surface was then used to capture the humanised antibodies. In-house generated recombinant cynomolgus macaque and baboon LAG-3 ECD-His6 were then passed over the captured antibodies and regeneration was carried out using 50 mM NaOH. LAG-3 ECD-His6 was passed over at 16, 4, 1, 0.25 and 0.0625 nM. The binding curves were double referenced with buffer injection (i.e. 0 nM) and the data was fitted to the T100 analysis software using the 1:1 model. The run was carried out at 37° C. using HBS-EP as the running buffer.

[2] = target: T2, Recombinant baboon LAG-3 ECD-His6; assay: as above
Description: as §1, §2

[3] = target: T1, Recombinant cynomolgus macaque LAG-3 …; assay: SPR Biacore T100, antibody captured on Protein A, LAG-3 ECD-His6 analyte 0.0625-16 nM, 1:1 model, 37 C
Description: (§3) The binding cross reactivity of anti-LAG-3 humanised antibodies for both cynomolgus macaque (cyno) and baboon recombinant LAG-3 ECD-His6 (SEQ ID NOs 52 and 53, respectively) was assessed using the Biacore™ T100 (GE Healthcare).
as §2

[4] = target: T2, Recombinant baboon LAG-3 ECD-His6; assay: as above
Description: as §3, §2

[5] = target: T3, Recombinant human LAG-3 ECD-His6; assay: SPR Biacore T100, antibody captured on Protein A, LAG-3 ECD-His6 analyte, 1:1 model, 25 C, geometric mean of 3 runs
Description: as §1
(§4) In order to investigate the statistical significance of this kinetic data, this experiment was repeated 3 times with the same batch of the four antibodies and the chimeric control. KD, ka and kd parameters were each log (base 10) transformed prior to separate statistical analyses. For each parameter, a mixed model analysis of variance CAnova′) was performed on transformed data, including terms for Run (random block effect) and Antibody.

[6] = target: T3, Recombinant human LAG-3 ECD-His6; assay: SPR Biacore T100, antibody captured on Protein A, LAG-3 ECD-His6 analyte, 1:1 model, 25 C, geometric mean of 3 runs (table head says nM; value is in M by paragraph 194)
Description: as §1, §4

fold improvement in affinity against human recombinant LAG-3 ECD-His6 [1] [fold]	fold improvement in affinity against human recombinant LAG-3 ECD-His6 [2] [fold]	Kd [3] [nM]	Kd [4] [nM]	koff [5] [s⁻¹]	Kd [6] [nM]	Binder
10	10	0.021	0.024	0.00441	0.218	H5L7BW (antibody, human IgG1, kappa, afucosylated: no fucose on the core carbohydrate structure attached to Asn297, Same plasmids as H5L7, expressed in the BioWa POTELLIGENT (FUT8 knock-out CHO) cell line; also called afucosylated antibody H5L7BW; afucosylated H5L7) heavy: not shown light: DIQMTQSPSSLSASVGDRVTITCKSSQSLLNPSNQKNYLAWYQQKPGKAPKLLVYFASTRDSGVPSRFSGSGSGTDFTLTISSLQPEDFATYYCLQHFGTPPTFGQGTKLEIKRTVAAPSVFIFPPSDEQLKSGTASVVCLLNNFYPREAKVQWKVDNALQSGNSQESVTEQDSKDSTYSLSSTLTLSKADYEKHKVYACEVTHQGLSSPVTKSFNRGEC
10	10	0.017	0.022	0.00395	0.208	H5L7 (antibody, human IgG1, kappa, Humanised IgG1/kappa of A9H12 (IMP731); also called fucosylated H5L7; non-ADCC enhanced variant H5L7) heavy: not shown light: DIQMTQSPSSLSASVGDRVTITCKSSQSLLNPSNQKNYLAWYQQKPGKAPKLLVYFASTRDSGVPSRFSGSGSGTDFTLTISSLQPEDFATYYCLQHFGTPPTFGQGTKLEIKRTVAAPSVFIFPPSDEQLKSGTASVVCLLNNFYPREAKVQWKVDNALQSGNSQESVTEQDSKDSTYSLSSTLTLSKADYEKHKVYACEVTHQGLSSPVTKSFNRGEC
~100	~100	0.021	0.019	0.0275	2.76	IMP731 (antibody, human IgG1, kappa, Chimeric (murine variable domains, human IgG1/kappa constant regions); also called A9H12; chimeric antibody IMP731) heavy: not shown light: DIVMTQSPSSLAVSVGQKVTMSCKSSQSLLNGSNQKNYLAWYQQKPGQSPKLLVYFASTRDSGVPDRFIGSGSGTDFTLTISSVQAEDLADYFCLQHFGTPPTFGGGTKLEIKRTVAAPSVFIFPPSDEQLKSGTASVVCLLNNFYPREAKVQWKVDNALQSGNSQESVTEQDSKDSTYSLSSTLTLSKADYEKHKVYACEVTHQGLSSPVTKSFNRGEC
